{"source": "the nanobody polyreactivity screen of Harvey et al. (2022)"}
{"test": "yeast display, Sf9 membrane polyspecificity reagent, FACS + sequencing; frameworks hold sequencing errors", "method_in_brief": "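Using colony PCR, genes from sorted yeast display clones were amplified, then sequenced on MiSeq at 2 × 250 and filtered by CDR length. The clones had been stained with 10% biotinylated, detergent-solubilized Sf9 membrane reagent for 1 hour at 4 °C and sorted by FACS into low and high (top ~1%) gates on anti-HA and streptavidin fluorescence. Polyreactivity labels come from the gate of origin.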"}
{"sequence": "QVQLVESGGGLDQAGGSLRLSCAASGFIYPVYTMGGYRQAPGKERELVAAITQIGGSTHYADTVKGRFTISRDNAKNTVYLQMNSLKPDETAVYYCNAVPSYGTEYDYWGHGTQVTVSS", "polyreactivity (PSR sort gate)": "low polyreactivity"}
{"sequence": "QVQLVESGGGLDQAGGSLRLSCAASGFTFPWYPMGWYRQAPGKEREMVAAISTGGSTDYADSVKGRFTISRDNAKNTVYLKMNILKPEDTAVYYCNAGYWVRKYYHGGYWGQGTQVTLSS", "polyreactivity (PSR sort gate)": "high polyreactivity"}
{"sequence": "QVQLVESGGGLDQAGGSLRLSCAASGFTFRFYAIGWYRQAPGKERELVAAIDTSGGRTYYADSVKGRFTISRDNANNTVYLQMNSLKPEDTAVYYCNAQVLYRYDYWGQGTQVTVSS", "polyreactivity (PSR sort gate)": "high polyreactivity"}
{"sequence": "QVQLVESGGGLDQAGGSLRLSCAASGFTFWYYAMGWYRQAPGKERYLVATISSSGGSTYYADSVKGRFTISRDTAMNTVYLQMNSLKPEDTAVYYCNADDNPVWEYDYWGQGTLVTVSS", "polyreactivity (PSR sort gate)": "low polyreactivity"}
{"sequence": "QVQLVESGGGLDQAGGSLRLSCAASGFTFYWYAMGWYRQAPGKEREFVAAIDQSGGSTYYADSVKGRFTISRDNAKNNVYLQMNSLKPEDTAVYYCAKLYNIGYDYWGLGTQVTVSS", "polyreactivity (PSR sort gate)": "low polyreactivity"}
{"sequence": "QVQLVESGGGLDQAGGSLRLSCAASGFTLYRNAMGWYRQAPGKERELVAAITSSGGRTYYADSVKGRFTISRDNAKYTVYLQMNSLKPEDTAVYYCAAEFGLGYYYWGQGTQVNVSS", "polyreactivity (PSR sort gate)": "high polyreactivity"}
{"sequence": "QVQLVESGGGLDQAGGSLRLSCAASGFTSYENAMGSYRQAPGKERELVAAITWDGGSTYYADSVKGRFTISRDNAKNTVYFQMNSLKPEDTAVYYCAARQVVYYAYTFDYWGQGTQVTVSS", "polyreactivity (PSR sort gate)": "low polyreactivity"}
{"sequence": "QVQLVESGGGLDQAGGSLRLSCAASGFTSYKYSRGWYRQAPGKETELVAASTGSGSRTFYADSVKGRFTISRDNAKNSFYLLMNSLKPEDTADYYCAARRPLYPERDYWGHGTQVTVSS", "polyreactivity (PSR sort gate)": "high polyreactivity"}
{"sequence": "QVQLVESGGGLDQAGGSLRLSCAASGIFGVNTMGWYRQAPGKERELVASITSGGSTNYADSVKGRFTISRDNAKNTVYLQMNSLKPEDTAVYYCAAGLYLQGPFDYWGQGTQVTVSS", "polyreactivity (PSR sort gate)": "low polyreactivity"}
{"sequence": "QVQLVESGGGLDQAGGSLRLSCAASGIIFSQYAMGWYRQAPGKERELVAGITRSGGSTYYADSVKGRFTISRDNAKNTVYLQMNSLKPEDTAVYYCAAVQRYEYGYWGQGTQVTVSS", "polyreactivity (PSR sort gate)": "high polyreactivity"}
{"sequence": "QVQLVESGGGLDQAGGSLRLSCAASGITFTFNAMGWYRQAPGKERELVAAISSTTSTKYADSVKGRFTISRDNAKYTVYLQMNSLKPEDTAVYYCAAVEFELRGDYWGQGTQVTVSS", "polyreactivity (PSR sort gate)": "low polyreactivity"}
{"sequence": "QVQLVESGGGLDQAGGSLRLSCAASGITFYGYAMGWYRQAPGKEREFVAVITSTARTNYADSVKGRFTISRDNAKNTVYLQMNSLKPEDTAVYYCAARRVVRRDRYGSMDYWGQGTQVTVSS", "polyreactivity (PSR sort gate)": "high polyreactivity"}
{"sequence": "QVQLVESGGGLDQAGGSLRLSCAASGITLTANAMGWYRQSPGTERELVAAISRGGSTYYADSVKGRFTISRDNAKNTVYLQMNSVKPEDTQVFYCNKAGGYWYAKRDYDYWGQGTQVTVSS", "polyreactivity (PSR sort gate)": "high polyreactivity"}
{"sequence": "QVQLVESGGGLDQAGGSLRLSCAASGITLTNNAMGWYRQAPGKERELVAAITRSGGSTYYADSVKGRFTISRDNAKNTVYLQMNSLKPEDTAVYCAARWYSYSGSIRSYDYCGQGTQVTVSS", "polyreactivity (PSR sort gate)": "low polyreactivity"}
{"sequence": "QVQLVESGGGLDQAGGSLRLSCAASGLIFRRYAMGWYRQAPGKEREFVAAIRWNGGTTYYADSVKGRFTISRDNAKYTVYLQMNSLKPEDTAVYYCAARVYPAYPRGYDYWGQGTQVTVSS", "polyreactivity (PSR sort gate)": "high polyreactivity"}
{"sequence": "QVQLVESGGGLDQAGGSLRLSCAASGLIFYYYALGWYRQAPGKERELVAAISSRGSSTYYADSVKGRFTISRDNAKKTVYLQMNSLKPEDTAVYYCAADSVRKYFGYDYWGQGTQVTVSS", "polyreactivity (PSR sort gate)": "high polyreactivity"}
{"sequence": "QVQLVESGGGLDQAGGSLRLSCAASGLTFAKYAMGWYRQAPGKERELVAAIRSGDDTTYADSVKGRFTISRDNAKNTVYLQMNSLKPEDTAVYYCAARYYRTWHGGFGYWGQGTQVTVSS", "polyreactivity (PSR sort gate)": "high polyreactivity"}
{"sequence": "QVQLVESGGGLDQAGGSLRLSCAASGLTFATYAMGWYRQAPGKERELVAAINGRGASTNYADSVKGRFTISRDNAKNTVYLKMNSLKPEDTAVYYCASRLYRRNKYVLFDYWGQGTQVTVSS", "polyreactivity (PSR sort gate)": "high polyreactivity"}
{"sequence": "QVQLVESGGGLDQAGGSLRLSCAASGLTFRYYAMGWYRQAPGKERELVAGISGRGGSTYYADSVKGRFTISRDNAKNTVYLQMNSLKPEDTAVYYCAADYSYGRFRRFDYWGQGTQVNVSS", "polyreactivity (PSR sort gate)": "high polyreactivity"}
{"sequence": "QVQLVESGGGLDQAGGSLRLSCAASGLTFYTYAMGWYRQAPGTERELVAAIRWRGGRTYYADSVKGRFTISRDNAKNTVYLQMNSLKPEDTAVYYCAADYSTLYKYDYWGQGTQVTVSS", "polyreactivity (PSR sort gate)": "low polyreactivity"}
{"sequence": "QVQLVESGGGLDQAGGSLRLSCAASGLTSLGNAMGWYRQAPGKERELVAAITRTGTSTYYADSVKGRFTISRDNAKNTVYLQMNSLKPEDTAVYYCNADGQSQYRYGSQYRYDYWGQGTQVTVSS", "polyreactivity (PSR sort gate)": "low polyreactivity"}
{"sequence": "QVQLVESGGGLDQAGGSLRLSCAASGNIFVEYAMGWYSQAPGKERELVAAITNSGGRTHYADSVKGRFTISRDNAKNTGSLQMNSRKPEDTAVFYCAAPTKYRSRRYYWGQGTQVSVSS", "polyreactivity (PSR sort gate)": "high polyreactivity"}
{"sequence": "QVQLVESGGGLDQAGGSLRLSCAASGNTFFWPNAMGWYRQAPGKERELFAGISYRGASTYYADSVKGRFTISRDNAKNTVYLQMNSLKPEDTAVYYCAADNTPRGRRQNRDMYYWGQGTQVTVSS", "polyreactivity (PSR sort gate)": "high polyreactivity"}
{"sequence": "QVQLVESGGGLDQAGGSLRLSCAASGRIFNVYAMGWYRQAPGKERELVASITSAGSTYYADSVKGRFTISRDNAKNTVYIKMNSLKPEDTAVYYCAADCYSVYYSTYDSWGQGTQVTVSS", "polyreactivity (PSR sort gate)": "low polyreactivity"}
{"sequence": "QVQLVESGGGLDQAGGSLRLSCAASGRIFVFYTMAWYRQAPGKERDLVAAITKSGGSTYYADSVKGRFTISRDNAKNTVYFQMNSLKPEDTAVYYCATRDSPRTKNGYYYWGQGTQVTVSS", "polyreactivity (PSR sort gate)": "high polyreactivity"}
{"sequence": "QVQLVESGGGLDQAGGSLRLSCAASGRTFAYYTMGWYRQAPGKERELVAAITSSGGSTYYADSVKGRFTISRDNAKNTVYLQMKSLKPEDTAVYYCNAYGLRWASRLGYDYWGQGTQVTVSS", "polyreactivity (PSR sort gate)": "high polyreactivity"}
{"sequence": "QVQLVESGGGLDQAGGSLRLSCAASGRTFGRNAMGWYRQAPGKESELVAASSTRGGSTFYADSVKARFTISRDNAKNTVYLQMNSLKPEDTAVYYCAAAGTARWPRPTSGLLDYYYWGQVTQVTVSS", "polyreactivity (PSR sort gate)": "high polyreactivity"}
{"sequence": "QVQLVESGGGLDQAGGSLRLSCAASGRTFIAYARGWYRQAPGKERELVAAITSSGGSTNYADSVKGRFTISRDNAKNTVYLQMNSLKPEDTAVYYSATDIYECPYFYYSYYYWGQGTQVTVSS", "polyreactivity (PSR sort gate)": "low polyreactivity"}
{"sequence": "QVQLVESGGGLDQAGGSLRLSCAASGRTFIGYAMGWYRQAPGKVRELVAAFNWSGARTYYADSVKGRFTISRDNAKNTVYLQMNSLKPEDTAVYYCAAVPVTSQTKYGYWGQGTQVTVSS", "polyreactivity (PSR sort gate)": "high polyreactivity"}
{"sequence": "QVQLVESGGGLDQAGGSLRLSCAASGRTFRHYAMGWYRQAPGKERELVASIRWNGASTNYADSVKGRFTISRDNAKNTVYLQMNSLKPEDTAVYYCAARFGSGFNYWGQGTQVTVSS", "polyreactivity (PSR sort gate)": "high polyreactivity"}
{"sequence": "QVQLVESGGGLDQAGGSLRLSCAASGRTFYYYAMGWYRQAPGIERELVAAISWSGGNTYYADSVKGRFTISRDNAKNTVYLQMNSLKPEDTAVYYCNRAYRTLTARTGRYDYWGQGTQVTVSS", "polyreactivity (PSR sort gate)": "high polyreactivity"}
{"sequence": "QVQLVESGGGLDQAGGSLRLSCAASGRTINGNTMGCYRQAPGKQRELVAVIDWSGGSTYYADSVKGRFTISRDNAKNTVYLQMNSLKPEDTAVYYCNAETRDPILYGEYDYWGQGTQVTVSS", "polyreactivity (PSR sort gate)": "low polyreactivity"}
{"sequence": "QVQLVESGGGLDQAGGSLRLSCAASGSIFASNAMGWYRQAPGKERELVAAINSGDSTNYADSVKGRFTISRDNAKNTVYLQMNSLKPEDTAVYYCARGLEERYDYWGQGTQVTVSS", "polyreactivity (PSR sort gate)": "low polyreactivity"}
{"sequence": "QVQLVESGGGLDQAGGSLRLSCAASGSIFDYYAMGWYRQAPGKERELVARISYSGGTTYYADSVKGRFTISRDNAKNTVYLQMNSLKPEDTAVYYCNARIPYSWRYGYWGQGTQVTVSS", "polyreactivity (PSR sort gate)": "high polyreactivity"}
{"sequence": "QVQLVESGGGLDQAGGSLRLSCAASGSIFESYAMGWYRQAPGKERELVAAITKRGGSTYYADSVKGRFTISRDNAKNTVYLQMNRLKPEDTAVYYCNASWPGIGPIYDYWGQGTQVTVSS", "polyreactivity (PSR sort gate)": "low polyreactivity"}
{"sequence": "QVQLVESGGGLDQAGGSLRLSCAASGSIFGSYTLGGYRQAPGKERELVAVINWSGDRTYYADSVKGRFTISRDNAKNTVYLQMNSLKPEDTAVYYCAARERAAYSRIRYNYWGQGTQVTVSS", "polyreactivity (PSR sort gate)": "high polyreactivity"}
{"sequence": "QVQLVESGGGLDQAGGSLRLSCAASGSIFNDNVMGWYRQAPWKERELVAGISRSGTRTYYADSVKGRFTISRDNAKNTVYLQMNSLKPEDTAVYYCAAAYGQARRYNGSQYGSWGQGTQVTVSS", "polyreactivity (PSR sort gate)": "high polyreactivity"}
{"sequence": "QVQLVESGGGLDQAGGSLRLSCAASGSIFPPYAMGWYSQAPGKERELVATITIRGGSTYYADSVKGRFTISRDNAKNTVYLQMNSLKPEDTAVYYCAADYTKYYRRYYYWGQGTQVTVSS", "polyreactivity (PSR sort gate)": "high polyreactivity"}
{"sequence": "QVQLVESGGGLDQAGGSLRLSCAASGSIFYAYAMGWYRQAPGKEREFVAVISRGGITNYADSVKGRFTISRDNAKNTVYLELNSLKPEDTAVYYCAAGTSAWGYLRRYGYWGQGSQVTVSS", "polyreactivity (PSR sort gate)": "low polyreactivity"}
{"sequence": "QVQLVESGGGLDQAGGSLRLSCAASGSIFYDNTMAWYRQAAGKERDLVADISSGDSTYYADSVKGRFTISRDNAKNTVYLQMNSLKPEDTAVYYCNADVYSWVSVKEGDYWGQGTEVTVSS", "polyreactivity (PSR sort gate)": "low polyreactivity"}
{"sequence": "QVQLVESGGGLDQAGGSLRLSCAASGSIFYFYTMGWYRQAPGKEREFVAAINGIGGSTYYADSVKGRFTISRDNAKNTVYLQMNRLKPEDTAVYYCAADAPWFKRNARKYNYWGQGTQVTVSS", "polyreactivity (PSR sort gate)": "low polyreactivity"}
